US20220119521A1 (Pfizer, published 2022)
Numbering of substitutions follows the chain as printed.

B1: anti-MAdCAM monoclonal antibody 1.7.2 (antibody, human IgG2, kappa, V domains shown)
VH: EVQLVESGGGLVKPGGSLRLSCVASGFTFTNAWMIWVRQAPGKGLEWVGRIKRKTDGGTTDYAAPVKGRFTISRDDSKNTLYLQMNSLKTEDTAVYYCTTGGVAEDYWGQGTLVTVSS
VL: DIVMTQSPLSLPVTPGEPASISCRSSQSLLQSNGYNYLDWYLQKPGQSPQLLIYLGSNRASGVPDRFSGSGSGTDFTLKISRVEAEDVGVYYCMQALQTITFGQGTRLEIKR
B2: anti-MAdCAM monoclonal antibody 1.8.2 (antibody, human IgG2, kappa, V domains shown)
VH: B1 VH with A24V
VL: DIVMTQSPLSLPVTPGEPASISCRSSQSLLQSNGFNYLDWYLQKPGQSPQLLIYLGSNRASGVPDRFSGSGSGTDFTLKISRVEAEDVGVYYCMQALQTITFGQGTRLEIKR
B3: anti-MAdCAM monoclonal antibody 7.20.5 (antibody, human IgG2, kappa, V domains shown)
VH: QVQLQESGPGLVKPSETLSLTCTVSGSSISSYHWNWIRQPAGKGLEWIGRIYTSGSTNYNPSLKSRVTMSLDTSKNQFSLKLSSVTAADTAVYYCAREGVRYYYASGSYYYGLDVWGQGTTVTVSS
VL: not shown
B4: anti-MAdCAM monoclonal antibody 7.26.4 (antibody, human IgG2, kappa, V domains shown)
VH: QVQLVQSGAEVKKPGASVKVSCEASGYTFTSYGIDWVRQAPGQGLEWMGWISVYSGNTNYAQKLQGRVTMSTDTSTSTAYMELRSLRSDDTAVYYCAREGSSSSGDYYYGMDVWGQGTTVTVSS
VL: DIVMTQTPLSLSVTPGQPASISCKSNQSLLYSDGKTYLFWYLQKPGQPPQLLIYEVSNRFSGVPDRFSGSGSGTDFTLKISRVEAEDVGVYYCMQSIQLPWTFGQGTKVEIKR
B5: anti-MAdCAM monoclonal antibody 6.67.1 (antibody, human IgG4, kappa, V domains shown)
VH: QVQLQESGPGLVKPSETLSLTCTVSGDSISSNYWSWIRQPAGKGLEWIGRIYTSGGTNSNPSLRGRVTILADTSKNQFSLKLSSVTAADTAVYYCARDRITIIRGLIPSFFDYWGQGTLVTVSS
VL: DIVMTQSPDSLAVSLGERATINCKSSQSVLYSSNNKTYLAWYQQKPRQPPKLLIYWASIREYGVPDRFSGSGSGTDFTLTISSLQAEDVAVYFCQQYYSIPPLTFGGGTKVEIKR
B6: anti-MAdCAM monoclonal antibody 6.22.2 (antibody, human IgG4, kappa, V domains shown)
VH: QVQLVESGGGVVQPGRSLRLSCAASGHTFSSDGMHWVRQAPGKGLEWVAIIWYDGSNKYYADSVKGRFTISRDNSKNTLYLQMNSLRAEDTAVYYCARDPGYYYGMDVWGQGTTVTVSS
VL: EIVLTQSPDFQSVTPKEKVTITCRASQRIGSSLHWYQQKPDQSPKLLIKYASQSFSGVPSRFSGSGSGTNFTLTINGLEAEDAATYYCHQSGRLPLTFGGGTKVEIKR
B7: anti-MAdCAM monoclonal antibody 9.8.2 (antibody, human IgG4, kappa, V domains shown)
VH: QVQLVESGGGVVQPGRSLRLSCAASGFTFSSYGMHWVRQAPGKGLEWVAVIWYDGSNEYYADSVKGRFTISRDNSKNTLYLQMNSLRAEDTAVYYCARGAYHFAYWGQGTLVTVSS
VL: DIQMTQSPSSLSASVGDRVTITCQASQDISNYLNWYQQKPGKAPKLLIYDASNLETGVPSRFSGSGSGTDFTFTISSLQPEDIATYSCQHSDNLSITFGQGTRLEIKR
B8: anti-MAdCAM monoclonal antibody 6.34.2 (antibody, human IgG4, kappa, V domains shown)
VH: QVQLVESGGGVVQPGRSLRLSCAASGFTFSSYGMHWVRQAPGKGLEWVAVISNDGNNKYYADSVKGRFTISRDNSKNTLYLQMNSLSAEDTAVYYCARDSTAITYYYYGMDVWGQGTTVTVSS
VL: DIQMTQSPSSLSASVGDRVTITCRASQNISSYLNWFQQKPGKAPKLLIYAASGLKRGVPSRFSGSGSGTDFTLTIRTLQPDDFATYSCHQSYSLPFTFGPGTKVDIKR
B9: anti-MAdCAM monoclonal antibody 6.14.2 (antibody, human IgG4, kappa, V domains shown)
VH: EVQLLESGGGLVQPGGSLRLSCAASGLTFNNSAMTWVRQAPGKGLEWVSTTSGSGGTTYYADSVKGRFTISRDSPKNTLYLQMNSLRAEDTAVYYCAARGYSYGTTPYEYWGQGTLVTVSS
VL: DIQMTQSPSSLSASVGDRVTITCRASRSISSYLNWYQQKPGKAPKVLIFFVSSLQSGVPSRFSGSGSGTDFTLTISSLQPEDFATYYCQQNYIPPITFGQGTRLEIRR
B10: anti-MAdCAM monoclonal antibody 6.77.1 (antibody, human IgG4, kappa, V domains shown)
VH: EVQLVESGGGLVKPGGSLRLSCAASGFTFSSYSMNWVRQAPGKGLEWVSSISSSSSYIYYADSVKGRFTISRDNAKNSLYLQMNSLRAEDTAVYYCARDGYSSGWSYYYYYGMDVWGQGTTVTVSS
VL: B4 VL with K24N, N26S, Y31L, F39N, Y92S, P100M, W101C, T102S, V109L

Each binder was assayed against MAdCAM-IgG1 Fc fusion protein (human) (assay: cell-based or functional assay).

Row | Binder | Mean IC50, α4β7+ JY cell adhesion to coated MAdCAM IgG1 Fc fusion [mg/L]
1 | B1 | 0.03
2 | B2 | 0.027
3 | B3 | 0.025
4 | B4 | 0.021

The binders below were run against T1, chimeric cynomolgus/human MAdCAM (cynomolgus; human, UniProt Q13477 226-382, limits assumed) (assay: cell-based or functional assay).
T1 sequence: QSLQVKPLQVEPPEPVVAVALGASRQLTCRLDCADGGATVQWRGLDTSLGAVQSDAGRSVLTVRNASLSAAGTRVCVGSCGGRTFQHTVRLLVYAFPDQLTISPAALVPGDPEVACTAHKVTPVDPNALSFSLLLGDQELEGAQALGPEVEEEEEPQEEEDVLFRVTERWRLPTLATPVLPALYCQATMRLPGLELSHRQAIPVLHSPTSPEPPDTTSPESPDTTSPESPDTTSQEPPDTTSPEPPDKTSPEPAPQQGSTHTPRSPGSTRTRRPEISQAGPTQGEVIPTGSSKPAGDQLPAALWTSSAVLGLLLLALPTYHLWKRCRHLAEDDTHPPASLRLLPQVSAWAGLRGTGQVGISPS

Row | Binder | Functional IC50 (µg/mL), cynomolgus/human MAdCAM-CHO/JY adhesion assay [µg/mL]
5 | B5 | 0.75
6 | B6 | 0.83
7 | B7 | 0.83
8 | B3 | 0.62
9 | B8 | 0.47
10 | B9 | 0.53
11 | B4 | 0.96
12 | B10 | 0.64
